Data published in US8624002B2, “Prostaglandin E2 binding proteins and uses thereof” (AbbVie, Inc., priority 2008, dated 2014).

Test system: mouse collagen-induced arthritis
Assay: Collagen-induced arthritis
Format: in vivo, DBA/J mice
Settings: 8 mg/kg, 2×/week, i.p.
Procedure: Type II bovine collagen (lyophilized) was obtained from the University of Utah (Salt Lake City, Utah). Male DBA/J mice (8-10-week-old, Jackson Laboratories, Bar Harbor, Me.) were immunized intradermally at the base of the tail with 100 μL of emulsion containing 100 μg of type II bovine collagen dissolved in 0.1 N of acetic acid and 100 μg of heat-inactivated Mycobacterium tuberculosis H37Ra (Complete Freund's Adjuvant, Difco, Laurence, Kans.). Twenty-one days after immunization with collagen, mice were boosted IP with 1 mg of Zymosan A (Sigma, St. Louis, Mo.). Following the boost, mice were monitored daily for arthritis. Each paw was scored by the following criteria: 0=normal; 1=swelling in one site, foot, or ankle; 2=swelling in foot and ankle; and 3=ankylosis. Scores were summed for each animal, and total average of all animals in each group was expressed as MAS. In addition to clinical scores, mice were also evaluated for paw-edema using Dyer spring calipers model #310-119. […]
Micro-computed tomography was performed on a Scanco μCT-40 unit (Scanco Medical AG) at 60 kVp at 160 μA. The hind paws (stored in 70% ethanol) were secured in imaging tubes and the tarsal bone volume was measured for a 1.8-mm section of the mouse ankle from the base of the tibia to the tarsal/metatarsal joint at a resolution of 18 μm. The raw micro-computed tomography image was then analyzed using the Scanco AG μCT Evaluation program.
For histopathology analysis, formalin-fixed paws were sectioned and stained with Gills 3 hematoxylin (Richard-Allan Scientific, Kalamazoo, Mich.) and eosin with phloxine (Newcomer Supply, Middleton, Mich.). Severity of disease was evaluated histologically using the following criteria: 0=normal; 1=minimal change; 2=mild change; 3=moderate change; and 4=severe change. Scores were summed for each animal, and the total was expressed as an average of all animals in each group.
The therapeutic effects of anti-PGE2 alone was evaluated in mouse (male DBA/1J) collagen-induced arthritis, a standard preclinical model for human rheumatoid arthritis. […]

B1: 2B5-8.0: recombinant anti-PGE2 antibody from solved 2B5 sequence; VH SEQ ID NO 42, VL SEQ ID NO 43 (antibody, V domains shown)
VH: QVQLQQSGPELVRPGSSVKISCKASGYTFTKYWLGWVKQRPGHGLEWIGDIYPGYDYTHYNEKFKDKATLTVDTSSSTAYMQLSSLTSEDSAIYYCARSDGSSTYWGQGTLVTVSA
VL: DVLMTQTPLSLPVSLGDQASISCTSSQNIVHSNGNTYLEWYLQRPGQSPKLLIYKVSNRFSGVPDRFSGSGSGTVFTLKISRVEAEDLGVYYCFQVSHVPYTFGGGTKLEIKR
Paw Swelling (AUC) (mm # days): 8.4 ± 1.3 mm # days | Bone Volume (mm^3) (micro CT tarsal bone volume): 1.6 ± 0.1 mm^3 | MAS (AUC) (Score # days) (treatment after disease onset): 57.4 ± 6.7 Score # days
